Assay results taken from patent US20180362629A1 (ZOETIS BELGIUM S A, published 2018).
Changes are numbered by the printed parent chain. “And” between values parts separate entries of the source, which are not always exact repeats. Equal entries are not always repeated.

B1: 23F1 hybridoma supernatant (antibody, mouse IgG1, V domains shown)
VH: EVQLQQSGAELVKPGASVKLSCTASGFNIKDTYIYWVKQRPEQGLEWIGRIDPANGNTIYASKFQGKATITADTSSNTAYMQLSSLTSGDTAVYYCAGYGYYAYWGQGTTLTVSS
VL: DVVLTQTPLSLPVNIGDQASISCKSTKSLLNGDGFTYLDWYLQKPGQSPQLLIYLVSNRFSGVPDRFSGSGSGTDFTLKISRVEAEDLGVYYCFESNYLFTFGSGTKLEMKR
notes: Tested as supernatant of the hybridoma before subcloning; mouse IgG1 kappa; also called ML129-23F1.4G3
B2: 21D4 hybridoma supernatant (antibody, mouse IgG1, V domains shown)
VH: B1 VH with T69S
VL: B1 VL
notes: Tested as supernatant of the hybridoma before subcloning; mouse IgG1 kappa; also called ML129-21D4.4A11
B3: 3F7 hybridoma supernatant (antibody, mouse IgG1, V domains shown)
VH: QVQLKESGPGLVAPSQSLSITCTVSGFSLTGYNINWVRQPPGKGLEWLGMIWGYGDTDYNSALKSRLSISKDNSKSQVFLKMNSLQTDDTARYYCARDHYGGNDWYFDVWGTGTTVTVSS
VL: DIQMTQTTSSLSASLGDRVTITCRASQDITNYLNWYQQKPDGTVKLLIYYTSRLHSGVPSRFSGSGSGTDYSLTISNLDQEDIATYFCQQGKTLPRTFGGGTKLEIKR
notes: Tested as supernatant of the hybridoma before subcloning; mouse IgG1 kappa; also called ML130-3F7.4A8
B4: 20B10 hybridoma supernatant (antibody, mouse IgG2b, V domains shown)
VH: EVHLVESGGGLVKPGGFLILSCAASGFTFSDYYMFWIRQTPGKRLEWVATISDGGSYTYYTDNVKGRFTISRDNVKNNLYLQMSHLKSADTAMYYCARDWSDSEGFAYWGQGTLVTVSA
VL: DVLMTQTPLSLPVSLGDQASISCRSSQSIVQSNGNTYLEWYLQKPGQSPKLLIYKVSNRFSGVPDRFSGSGSGTDFTLKISRVEAEDLGVYYCFQGSHVPFTFGSGTKLEIKR
notes: Tested as supernatant of the hybridoma before subcloning; mouse IgG2b kappa; also called ML129-20B10.3F4
B5: 14A9 hybridoma supernatant (antibody, mouse IgG1, V domains shown)
VH: EVQLVESGGGAVKPGGSLTLSCAASGFTFSNHYMYWVRQTPEKRLEWVASISDGGAYTFYPDTVKGRFTISRDNVNNNLYLQMRHLKSEDTAMYYCTREESANNGFAFWGQGTLVTVSA
VL: B4 VL with V30L, Q31H, K50N, K55R, S97A
notes: Tested as supernatant of the hybridoma before subcloning; mouse IgG1 kappa; also called ML130-14A9.5B12

Experiments:
human β NGF [1] = molecular target: T1, human β NGF (human, UniProt P01138 122-241, biotinylated in the TrkA inhibition ELISA (sites not given)); assay: TrkA inhibition ELISA; biotin-hNGF bound to rat TrkA/Fc; supernatant 1-fold
Method: (§1) The plates were washed three times with PBS/Tween. The plates were blocked with 200 μl/well of 2% milk in PBS for 1 hour at room temperature. The plates were washed three times as above. Rat TrkA/Fc chimera (R&D Systems, catalog #1056-TK) was added at 1 μg/ml (50 μl/well) in PBS/0.1% BSA and then incubated for 1 hour at room temperature. Biotinylated human NGF was titered and pre-incubated with anti-NGF antibody supernatants diluted 1-fold, 5-fold, and 25-fold, or purified anti-NGF mAbs diluted to 0.08, 0.4, 2, or 10 μg/ml for 1 hour at room temperature on a plate shaker. The negative control was unrelated conditioned supernatant. The positive control was sera from a mouse immunized with NGF. The plates were washed and then 50 μl of each biotinylated NGF/Ab mix was added to the appropriate wells. The plates were incubated for 1 hour at room temperature. The plates were washed. […] The plates were incubated for 30 min at room temperature. The plates were washed. 50 μl of TMB (Invitrogen, cat #00-2023) was added and the reaction was stopped using 2N H₂SO₄ (VWR, cat # BDH3500-1). The absorbance at 450 nm was read on a Spectromax 2E plate reader (Molecular Devices), and the absorbance readings are shown in Table 5 The numerical value indicates binding of biotinylated human β NGF to rat TrkA/Fc chimera.

human β NGF [2] = molecular target: T1, human β NGF; assay: TrkA inhibition ELISA; biotin-hNGF bound to rat TrkA/Fc; supernatant 5-fold
Method: as §1

human β NGF [3] = molecular target: T1, human β NGF; assay: TrkA inhibition ELISA; biotin-hNGF bound to rat TrkA/Fc; supernatant 25-fold
Method: as §1

T1 sequence (P01138 122-241 limits assumed): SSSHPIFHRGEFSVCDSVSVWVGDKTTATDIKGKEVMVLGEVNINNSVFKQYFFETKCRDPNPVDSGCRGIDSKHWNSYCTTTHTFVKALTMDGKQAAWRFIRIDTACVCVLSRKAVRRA

| Molecule | absorbance at 450 nm (human β NGF [1]) | absorbance at 450 nm (human β NGF [2]) | absorbance at 450 nm (human β NGF [3]) |
| --- | --- | --- | --- |
| unrelated conditioned supernatant (negative control) | 0.465 OD450 and 0.372 OD450 and 0.386 OD450 | 0.456 OD450 and 0.336 OD450 and 0.388 OD450 | 0.462 OD450 and 0.318 OD450 and 0.386 OD450 |
| B1 | 0.108 OD450 | 0.14 OD450 | 0.276 OD450 |
| B2 | 0.133 OD450 | 0.242 OD450 | 0.404 OD450 |
| B3 | 0.056 OD450 | 0.083 OD450 | 0.149 OD450 |
| B4 | 0.166 OD450 | 0.2 OD450 | 0.289 OD450 |
| B5 | 0.121 OD450 | 0.208 OD450 | 0.376 OD450 |
